Data on 18 molecules can be found in US20250206828A1, “ANTI-ADENOSINE RECEPTOR (A2aR) ANTIBODIES AND THE USE THEREOF” (Adept Therapeutics Inc., priority 2022, published 2025).

Assay [1] deals with human PBMCs (CD4 T, CD8 T, NK cells). The assay can be described thus: Restoration of IFN-γ and IL-2 production of NECA-suppressed T cells and NK cells (intracellular cytokine staining). Format: cell-based. The settings on record: NECA; test substance 2 μg/ml. As for the experimental part: (§1) Two hundred thousand (2×10^5) human peripheral blood mononuclear cells (PBMCs) human PBMC in complete IMDM medium were aliquoted into each well in a 96-well plate and the cells in the 96-well plate were pre-incubated with antibodies or small molecule inhibitors at indicated concentration for 90 minutes, followed by addition of T cell activator anti-CD3/28 dynabeads (Gibco, Cat #11132D) at ratio of 1:4 (Beads: PBMC, v/v) and NECA (DiscoverX, Cat #92-1191, final concentration […]). Cells were cultured in an incubator at 37° C., 5% CO2 for 24 hours. Cells were then collected and stimulated with anti-CD3/28 dynabeads in the presence of GolgiPlug™ Protein Transport Inhibitor (BD Biosciences, Cat #555028) according to manufacturer's manual for 4 hours. Thereafter, cells were incubated with human TruStain FcX block (Biolegend, Cat #422302) and True-Stain monocyte blocker (Biolegend, Cat #426103) for 15 minutes according the manufacturer's manual, and cells were then stained with surface markers PE-anti-CD4 (Biolegend, Cat #300550), PerCP-cy5.5-anti-CD8 (Biolegend, Cat #301032), APC/cy7-anti-CD3 (Biolegend, Cat #300426) and PE/cy7-anti-CD56 (Biolegend, Cat #362509), PE/cy7-anti-CD56 (Biolegend, Cat #362509), BV711-anti-CD25 (Biolegend, Cat #302636) and BV605-anti-CD69 (Biolegend, Cat #31938 After wash with FACS buffer, cells were stained with BV421-anti-IFN-γ (BD Bioscience, Cat #562988) and APC anti-IL-2 (BD Bioscience, cat #551383) using intracellular cytokine staining kit (BD Biosciences, cat #555028) following manufacturer's instruction. Stained samples were analyzed on FACSAria III machine. Data were analyzed using Flowjo software.

The test system of assay [2] is human PBMCs (CD4 and CD8 T cells). The assay can be described thus: Restoration of CD25 and CD69 activation markers on NECA-suppressed CD4 and CD8 T cells. Format: cell-based. The note with it: test substance 2 μg/ml. The method, then:
as §1

Assay [3] has as its target human adenosine A2A receptor (A2aR) (human, UniProt P29274 1-412). Nature of the assay: flow cytometry, HEK293-hA2aR cells, supernatant 1 ug/ml. Background: A flow cytometer gives signals particle by particle.

human adenosine A2A receptor (A2aR), sequence (P29274 whole entry): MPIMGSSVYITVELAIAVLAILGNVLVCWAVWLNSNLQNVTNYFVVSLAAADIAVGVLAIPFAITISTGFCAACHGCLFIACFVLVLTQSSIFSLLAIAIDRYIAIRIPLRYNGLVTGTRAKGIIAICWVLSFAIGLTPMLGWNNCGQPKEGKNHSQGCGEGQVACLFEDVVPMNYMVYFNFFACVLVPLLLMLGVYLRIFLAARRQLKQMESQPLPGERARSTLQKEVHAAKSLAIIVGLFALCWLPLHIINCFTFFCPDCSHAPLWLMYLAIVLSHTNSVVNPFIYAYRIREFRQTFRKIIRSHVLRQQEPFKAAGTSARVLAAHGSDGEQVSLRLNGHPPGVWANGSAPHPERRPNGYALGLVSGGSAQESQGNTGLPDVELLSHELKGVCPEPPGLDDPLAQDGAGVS

In the case of `Cc1cc(-c2nnc(N)nc2-c2ccc(F)cc2)cc(Cl)n1` [AZD4635], in assay [1], the “% of cells IFNγ+, CD4 T cells” value amounted to 3.41%; the “% of cells IFNγ+, CD8 T cells” value is 13.3%; the “% of cells IFNγ+, NK cells” value came to 8.91%; the “% of cells IL-2+, CD4 T cells” value turned out to be 10.4%. In addition, the “% of cells IL-2+, CD8 T cells” value in assay [1] is recorded as 2.57%. In addition, in assay [2], the “% of cells CD25+, CD4 T cells” value was determined as 48.8%; the “% of cells CD25+, CD8 T cells” value is 26%; the “% of cells CD69+, CD4 T cells” value stood at 48.1%; the “% of cells CD69+, CD8 T cells” value is listed as 49.1%.

B1: Hu3F8-H4/Hu3F8-L1 (antibody, human IgG1, V domains shown)
VH: EVQLVQSGAEVKKPGASVKVSCKASGFTFTRYWMNWVRQAPGQGLEWIGRIDPSDSETHYNHKFWGRATLTVDKSTSTVYMELSSLRSEDTAVYYCLRSLYGKGDYWGQGTTVTVSS
VL: DVVMTQSPLSLPVTLGQPASISCRSSQSIVHSNGNTYLEWFQQRPGQSPRRLIYKVSNRFSGVPDRFSGSGSGTDFTLKISRVEAEDVGVYYCYQGSHVPLTFGGGTKVEIK
Take B1: the MFI in assay [3] was found to be 110 MFI.

B2: Hu3F8-H3/Hu3F8-L1 (antibody, human IgG1, V domains shown)
VH: EVQLVQSGAEVKKPGASVKVSCKASGFTFTRYWMNWVRQAPGQGLEWIGRIDPSDSETHYNHKFWGRATLTVDTSTSTVYMELSSLRSEDTAVYYCLRSLYGKGDYWGQGTTVTVSS
VL: DVVMTQSPLSLPVTLGQPASISCRSSQSIVHSNGNTYLEWFQQRPGQSPRRLIYKVSNRFSGVPDRFSGSGSGTDFTLKISRVEAEDVGVYYCYQGSHVPLTFGGGTKVEIK
Take B2: the MFI in assay [3] was found to be 64 MFI.

B3: Hu3F8-H6/Hu3F8-L1 (antibody, human IgG1, V domains shown)
VH: EVQLVQSGAEVKKPGESLRISCKASGFTFTRYWMNWVRQMPGKGLEWIGRIDPSDSETHYNHKFWGHATLSVDKSSSTVYLQWSSLKASDTAMYYCLRSLYGKGDYWGQGTTVTVSS
VL: DVVMTQSPLSLPVTLGQPASISCRSSQSIVHSNGNTYLEWFQQRPGQSPRRLIYKVSNRFSGVPDRFSGSGSGTDFTLKISRVEAEDVGVYYCYQGSHVPLTFGGGTKVEIK
B3 displayed an MFI in assay [3] of 158 MFI.

B4: Hu3F6-H5/Hu3F6-L2 (antibody, human IgG1, V domains shown)
VH: EVQLVQSGAEVKKPGASVKVSCKTSGFAFTSYWMNWVRQAPGQGLEWIGRIDPSDSEAHYAHKFWGRATLTVDKSSSTVYMELSSLRSEDTAVYYCLRSLYGKGDYWGHGTTVTVSS
VL: DVVMTQSPLSLPVTLGQPASISCRSSQSLVHRNGNTYLEWYQQRPGQSPRRLIYKVSNRFSGVPDRFSGSGSGTDFTLKISRVEAEDVGVYYCYQGSHVPLTFGGGTKVEIK
As to B4, in assay [3], the MFI came to 191 MFI.

B5: Hu3F6-H2/Hu3F6-L2 (antibody, human IgG1, V domains shown)
VH: EVQLVQSGAEVKKPGASVKVSCKTSGFAFTSYWMNWVRQAPGQGLEWMGRIDPSDSEAHYHHKFWGRVTMTVDTSTSTVYMELSSLRSEDTAVYYCLRSLYGKGDYWGHGTTVTVSS
VL: DVVMTQSPLSLPVTLGQPASISCRSSQSLVHRNGNTYLEWYQQRPGQSPRRLIYKVSNRFSGVPDRFSGSGSGTDFTLKISRVEAEDVGVYYCYQGSHVPLTFGGGTKVEIK
In assay [3], B5 came in with an MFI of 146 MFI.

B6: Hu1B5-H5/Hu1B5-L1 (antibody, human IgG1, V domains shown)
VH: EVQLVQSGAEVKKPGASVKVSCKTSGFTFTRFWMNWVRQAPGQGLEWIGRIDPYDSETQYAHKFWDRATLTVDKSSSTVYMELSSLRSEDTAVYYCGRSLYGKGDYWGQGTTVTVSS
VL: DVVMTQSPLSLPVTLGQPASISCRSSQSIVHSNGNTYLEWFQQRPGQSPRRLIYKVSNRFSGVPDRFSGSGSGTDFTLKISRVEAEDVGVYYCFQGSHVPLTFGGGTKVEIK
For the molecule B6, the MFI in assay [3] amounted to 82 MFI.

B7: Hu3F8-H5/Hu3F8-L2 (antibody, human IgG1, V domains shown)
VH: EVQLVQSGAEVKKPGASVKVSCKASGFTFTRYWMNWVRQAPGQGLEWIGRIDPSDSETHYNAKFWGRATLTVDKSTSTVYMELSSLRSEDTAVYYCLRSLYGKGDYWGQGTTVTVSS
VL: DVVMTQSPLSLPVTLGQPASISCRSSQSIVHSNGNTYLEWYQQRPGQSPRRLIYKVSNRFSGVPDRFSGSGSGTDFTLKISRVEAEDVGVYYCYQGSHVPLTFGGGTKVEIK
The molecule B7 returned an MFI in assay [3] of 147 MFI.

B8: Hu3F8-H4/Hu3F8-L2 (antibody, human IgG1, V domains shown)
VH: EVQLVQSGAEVKKPGASVKVSCKASGFTFTRYWMNWVRQAPGQGLEWIGRIDPSDSETHYNHKFWGRATLTVDKSTSTVYMELSSLRSEDTAVYYCLRSLYGKGDYWGQGTTVTVSS
VL: DVVMTQSPLSLPVTLGQPASISCRSSQSIVHSNGNTYLEWYQQRPGQSPRRLIYKVSNRFSGVPDRFSGSGSGTDFTLKISRVEAEDVGVYYCYQGSHVPLTFGGGTKVEIK
In assay [3], B8 returned an MFI of 131 MFI.

B9: Hu3F8-H5/Hu3F8-L1 (antibody, human IgG1, V domains shown)
VH: EVQLVQSGAEVKKPGASVKVSCKASGFTFTRYWMNWVRQAPGQGLEWIGRIDPSDSETHYNAKFWGRATLTVDKSTSTVYMELSSLRSEDTAVYYCLRSLYGKGDYWGQGTTVTVSS
VL: DVVMTQSPLSLPVTLGQPASISCRSSQSIVHSNGNTYLEWFQQRPGQSPRRLIYKVSNRFSGVPDRFSGSGSGTDFTLKISRVEAEDVGVYYCYQGSHVPLTFGGGTKVEIK
For the molecule B9, in assay [3], the MFI turned out to be 58 MFI.

B10: Hu1B5-H3/Hu1B5-L1 (antibody, human IgG1, V domains shown)
VH: EVQLVQSGAEVKKPGASVKVSCKTSGFTFTRFWMNWVRQAPGQGLEWIGRIDPYDSETQYNHKFWDRATLTVDTSSSTVYMELSSLRSEDTAVYYCGRSLYGKGDYWGQGTTVTVSS
VL: DVVMTQSPLSLPVTLGQPASISCRSSQSIVHSNGNTYLEWFQQRPGQSPRRLIYKVSNRFSGVPDRFSGSGSGTDFTLKISRVEAEDVGVYYCFQGSHVPLTFGGGTKVEIK
Regarding B10, the MFI in assay [3] was 152 MFI.

B11: Hu3F6-H3/Hu3F6-L2 (antibody, human IgG1, V domains shown)
VH: EVQLVQSGAEVKKPGASVKVSCKTSGFAFTSYWMNWVRQAPGQGLEWIGRIDPSDSEAHYHHKFWGRATLTVDTSSSTVYMELSSLRSEDTAVYYCLRSLYGKGDYWGHGTTVTVSS
VL: DVVMTQSPLSLPVTLGQPASISCRSSQSLVHRNGNTYLEWYQQRPGQSPRRLIYKVSNRFSGVPDRFSGSGSGTDFTLKISRVEAEDVGVYYCYQGSHVPLTFGGGTKVEIK
In turn, B11 yielded an MFI in assay [3] of 200 MFI.

B12: Hu1B5-H1/Hu1B5-L2 (antibody, human IgG1, V domains shown)
VH: QVQLVQSGAEVKKPGASVKVSCKASGFTFTRFWMNWVRQAPGQGLEWMGRIDPYDSETQYNHKFWDRVTMTRDTSTSTVYMELSSLRSEDTAVYYCGRSLYGKGDYWGQGTTVTVSS
VL: DVVMTQSPLSLPVTLGQPASISCRSSQSIVHSNGNTYLEWYQQRPGQSPRRLIYKVSNRFSGVPDRFSGSGSGTDFTLKISRVEAEDVGVYYCFQGSHVPLTFGGGTKVEIK
As for B12, in assay [3], the MFI was determined as 62 MFI.

B13: Hu1B5-H2.1/Hu1B5-L1 (antibody, human IgG1, V domains shown)
VH: EVQLVQSGAEVKKPGASVKVSCKTSGFTFTRFWMNWVRQAPGQGLEWIGRIDPYDSETQYNHKFWDRVTMTVDTSTSTVYMELSSLRSEDTAVYYCGRSLYGKGDYWGQGTTVTVSS
VL: DVVMTQSPLSLPVTLGQPASISCRSSQSIVHSNGNTYLEWFQQRPGQSPRRLIYKVSNRFSGVPDRFSGSGSGTDFTLKISRVEAEDVGVYYCFQGSHVPLTFGGGTKVEIK
Turning to B13, the MFI in assay [3] was found to be 145 MFI.

B14: Hu1B5-H2/Hu1B5-L1 (antibody, human IgG1, V domains shown)
VH: EVQLVQSGAEVKKPGASVKVSCKTSGFTFTRFWMNWVRQAPGQGLEWMGRIDPYDSETQYNHKFWDRVTMTVDTSTSTVYMELSSLRSEDTAVYYCGRSLYGKGDYWGQGTTVTVSS
VL: DVVMTQSPLSLPVTLGQPASISCRSSQSIVHSNGNTYLEWFQQRPGQSPRRLIYKVSNRFSGVPDRFSGSGSGTDFTLKISRVEAEDVGVYYCFQGSHVPLTFGGGTKVEIK
Consider B14, for which the MFI in assay [3] came to 165 MFI.

B15: Hu3F8-H3/Hu3F8-L2 (antibody, human IgG1, V domains shown)
VH: EVQLVQSGAEVKKPGASVKVSCKASGFTFTRYWMNWVRQAPGQGLEWIGRIDPSDSETHYNHKFWGRATLTVDTSTSTVYMELSSLRSEDTAVYYCLRSLYGKGDYWGQGTTVTVSS
VL: DVVMTQSPLSLPVTLGQPASISCRSSQSIVHSNGNTYLEWYQQRPGQSPRRLIYKVSNRFSGVPDRFSGSGSGTDFTLKISRVEAEDVGVYYCYQGSHVPLTFGGGTKVEIK
As to B15, the MFI in assay [3] stood at 93 MFI.

B16: Hu1B5-H4/Hu1B5-L1 (antibody, human IgG1, V domains shown)
VH: EVQLVQSGAEVKKPGASVKVSCKTSGFTFTRFWMNWVRQAPGQGLEWIGRIDPYDSETQYNHKFWDRATLTVDKSSSTVYMELSSLRSEDTAVYYCGRSLYGKGDYWGQGTTVTVSS
VL: DVVMTQSPLSLPVTLGQPASISCRSSQSIVHSNGNTYLEWFQQRPGQSPRRLIYKVSNRFSGVPDRFSGSGSGTDFTLKISRVEAEDVGVYYCFQGSHVPLTFGGGTKVEIK
On to B16, for which the MFI in assay [3] came to 182 MFI.

B17: Hu1B5-H6/Hu1B5-L1 (antibody, human IgG1, V domains shown)
VH: EVQLVQSGAEVKKPGESLRISCKTSGFTFTRFWMNWVRQMPGKGLEWIGRIDPYDSETQYNHKFWDHATLSVDKSSSTVYLQWSSLKASDTAMYYCGRSLYGKGDYWGQGTTVTVSS
VL: DVVMTQSPLSLPVTLGQPASISCRSSQSIVHSNGNTYLEWFQQRPGQSPRRLIYKVSNRFSGVPDRFSGSGSGTDFTLKISRVEAEDVGVYYCFQGSHVPLTFGGGTKVEIK
For the molecule B17, in assay [3], the MFI stood at 178 MFI.
